Reference: patent US20190010231A1 (Pieris, published 2019)

Experiments:
[1] = target: T1, human LAG-3-Fc fusion (human LAG-3 extracellular domain fused to human IgG1 Fc fragment, R&D Systems) (human, UniProt P18627 23-450, biotinylated in Example 5 (sites not given)); test: dual-binding ELISA: PD-1-His coated, antibody titrated from 250 nM, then biotinylated huLAG-3-Fc 2 ug/mL, detection Extravidin-HRP, RFU
T1 construct: extracellular domain; also called huLAG-3-Fc; biotinylated human LAG-3-Fc; not shown: human IgG1 Fc fragment
T1 sequence (looked up): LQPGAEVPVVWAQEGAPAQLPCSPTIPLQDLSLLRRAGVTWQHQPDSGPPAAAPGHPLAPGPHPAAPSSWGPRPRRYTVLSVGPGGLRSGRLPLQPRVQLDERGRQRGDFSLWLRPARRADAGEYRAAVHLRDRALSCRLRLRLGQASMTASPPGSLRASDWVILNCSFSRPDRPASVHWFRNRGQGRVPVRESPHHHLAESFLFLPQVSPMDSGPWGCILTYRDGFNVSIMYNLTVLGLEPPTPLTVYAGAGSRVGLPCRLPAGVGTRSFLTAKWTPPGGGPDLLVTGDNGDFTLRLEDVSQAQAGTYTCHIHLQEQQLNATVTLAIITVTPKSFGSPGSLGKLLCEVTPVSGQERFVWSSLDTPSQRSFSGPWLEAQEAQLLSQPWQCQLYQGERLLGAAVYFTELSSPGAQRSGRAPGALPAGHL
Procedure: The plates were washed five times after each incubation step with 100 μL PBS-0.05% T. The plates were blocked with 2% BSA (w/v) in PBS-0.1% T for 1 h at room temperature and subsequently washed again. Different concentrations of the fusion polypeptides were added to the wells and incubated for 1 h at room temperature, followed by a wash step. […] After an additional wash step, fluorogenic HRP substrate (QuantaBlu, Thermo) was added to each well and the fluorescence intensity was detected using a fluorescence microplate reader.

[2] = target: T2, human LAG-3-His (LAG-3 with C-terminal polyhistidine tag, ACROBiosystems) (human, UniProt P18627 23-450); test: ELISA: LAG-3-His coated, detection anti-Tlc antibody-HRP (an antibody without lipocalin part would not be seen by this detection; see Figure 3C for anti-Fc detection)
T2 construct: Bought protein; also called recombinant LAG-3-His
T2 sequence (looked up): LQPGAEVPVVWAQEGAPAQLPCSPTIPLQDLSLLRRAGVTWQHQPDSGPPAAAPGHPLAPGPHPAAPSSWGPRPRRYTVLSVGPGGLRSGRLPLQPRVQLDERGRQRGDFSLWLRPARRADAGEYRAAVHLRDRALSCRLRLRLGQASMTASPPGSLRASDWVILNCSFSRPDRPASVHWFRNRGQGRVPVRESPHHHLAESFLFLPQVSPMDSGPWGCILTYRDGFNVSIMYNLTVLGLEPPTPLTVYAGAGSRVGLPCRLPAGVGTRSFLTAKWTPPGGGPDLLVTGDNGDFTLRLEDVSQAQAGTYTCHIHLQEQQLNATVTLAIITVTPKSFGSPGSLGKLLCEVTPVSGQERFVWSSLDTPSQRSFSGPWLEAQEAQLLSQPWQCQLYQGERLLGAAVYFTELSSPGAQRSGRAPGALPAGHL

B1: PD-1 specific benchmark antibody (SEQ ID NOs: 3 and 4) (antibody, human IgG4 S228P, kappa, V domains shown)
VH: QVQLVESGGGVVQPGRSLRLDCKASGITFSNSGMHWVRQAPGKGLEWVAVIWYDGSKRYYADSVKGRFTISRDNSKNTLFLQMNSLRAEDTAVYYCATNDDYWGQGTLVTVSS
VL: EIVLTQSPATLSLSPGERATLSCRASQSVSSYLAWYQQKPGQAPRLLIYDASNRATGIPARFSGSGSGTDFTLTISSLEPEDFAVYYCQQSSNWPRTFGQGTKVEIKR
notes: Engineered IgG4 backbone with the S228P mutation; also called PD-1-specific antibody
binding result [1]: no binding (tested: 250 nM)
binding result [2]: no binding (tested: 250 nM)
